Assay results: PMC3340446

Legend:
[1] = biological target: Trypanosoma brucei AlkB homolog (TbABH-His6) (Trypanosoma brucei brucei (strain 427 genomic DNA)); test: SEC
[2] = biological target: Trypanosoma brucei AlkB homolog (TbABH-His6) (Trypanosoma brucei brucei (strain 427 genomic DNA)); test: native gel or EMSA

stoichiometry N [1]: 2 | stoichiometry N [2]: 4
Substance: Trypanosoma brucei AlkB homolog (TbABH-His6) (enzyme)
